Among the data in a protein production outcome set (Wang et al. 2014) are protein production values, retold here.

A short description of the data set: label from the status in PepcDB records.

With “MITVSIVSHGQSTLVEQLLADLVRLDMSMVTEVLVTLNIPEDISSKPGDYPYPVRILRNTAARGFGANHNAAFRQAEGEWFCVMNPDIRLINNPFPILIEEGAYDSAGVIAPMVVTPSGMIEDSVRCFPVLTSLAAKLFGHGDGRYLFAAGDEAFAADWVAGMFMLFRTEDFRAVGGFDEGFFLYYEDVDICARLWKSGRSVLACPKASVIHDARRSSRRNLRYMKWHALSLIRYFWKHWGRLPQTPEQLEHHHHHH”, the protein production entry is on record as “not failed”. For the sequence “MIVLALDVYEGERAIKIAKSVKDYISMIKVNWPLILGSGVDIIRRLKEETGVEIIADLKLADIPNTNRLIARKVFGAGADYVIVHTFVGRDSVMAVKELGEIIMVVEMSHPGALEFINPLTDRFIEVANEIEPFGVIAPGTRPERIGYIRDRLKEGIKILAPGIGAQGGKAKDAVKAGADYIIVGRAIYNAPNPREAAKAIYDEIRGV”, the protein production entry is listed as “not failed”. In the case of “MIVPGGFPAPVTGSAVAASPPLPTVRLLSLDAHGRVLDWINWQDAACLYARDAVSWTLGEPCMQIHGGVSRLTGERSVLELHPIIAARGHARSRALDPTPTLTNTALFARDSQLCMYCGQHFSRPHLTRDHVMPVSKGGRDSWENVVTACFQCNSRKANRTPQQAHMPLLAVPYRPSWIEHLILSNRNILSDQMAFLRAQLPKRSKLSLLEHHHHHH” it was “failed”; in that of “MIVTLLAVGAAAAVGAVARYMLDQYVQYRSPGLFPLGTWLINVTGSFVLGLLVGLGARHGLPEQFVPIAGVGFCGAYTTFSTFSYELVHLREKGQVRKSLLYGASSLTAGLLAAAAGLAVESF”, “failed”.

Consider “MIYFIRKKKWLKQLEKGEAMKYAILIGDGMADYPIEKLGNRTILQAARTPAMDSIAARGRAGLAKTVPDSFPPGSDVANMSILGYDPATYYSGRAPLEAASMGVALAADDVAFRCNLITTEHGMIKDYSAGHISSDEAEILIDTLDYELSTENIRFYPGISYRHLIVAGNNLGAETECTPPHDITGEKIDKYLPRGKDGEFFSELIEASKVVLELHPVNLKRVEEGKNPANSIWVWGQGYAPKFTAFMKLYGKKGAVISAVDLLKGIGIYAGLDVIEVHGATGYLDTNYEGKVRAAIEALKTRDLVFVHVEAPDEAGHEGSIEKKLKAVEDFDSRIVAPILEYAENSDEPFTILVLPDHPTPISVKTHTRDPIPFAIYRTDKPETDNVEAFDEESVKNGSMGLVKASDLIGILIKSLEHHHHHH”, for which the protein production result was “not failed”. Take “MIYFTGDTHFADPRVLRIDRRPFPDMASHDVTLIRNWNEIVDAQDDIWHLGDFMSFRGGDCDQLLSMLNGRKHLIIGNNDPSTTTEATGWASVQHYSEMTLDDHLLILCHYPFRTWNKMGRKSINLHGHSHGRLKPLPRQYDVGVDAQRLRPVSLQTLLSTKPES”: the protein production entry is listed as “failed”. As for “MIYLFTGNMGTGKTSRVVSMILNNEDGLFKMKLEDGTEVDRPLYFCHIDGLDKRQFKAHELTEEQIMSAPLRDVIPEGAVLIVDEAHYTYPVRAAGRPVPPYIQELTELRHHGHTVILMTQHPSQLDIFVRNLVSKHVHLERKAIGMKQYYWYKCVTSLDNPAGVSGVEVASWKPPKEAFKYYKSASQHQ”, the entry is “not failed”; as for “MIYLHAIDPIAFSLGPVKVHWYGLMYLAGFGAAWCLGRQRIQAGRLLGVNIDGFSDLLFYAMMGVVLGGRVGYMLFYAFHDFLQEPLLLFRVWEGGMSFHGGLIGVLLAVAWWSRRQRMHMFDVVDFCAPLVPVGLGFGRLGNFIGGELWGKLTHNGWGVIFPRAPLSDVPAGQLAMQDVINFVQIQEHYAAGLLGHYARHPSQLYEAFLEGLVMFIVLWLFSRKPRPRYAVSGLFALLYGVFRFLVEFVRMPDNGVYVAFGWLTRGQILSLPLIVIGLFLFWLSCRSPVLQPVPAPEVAK”, “failed”. Turning to “MIYLQNFITTTIQLNIYLILVIGLLYVIIHYYRNKGVNAFLDIYLNYIPVLTHEFGHVLFNKLAGGKAKDLVIVTSPRERKVTSQQGYAITQSKGYLGQFITTIGGYLMPPLMFLTGLVSIHYQYPSIFITIYLFIFIYYLFITSRKLSPLIVIILISSLLYLVFKQDHQWFIYDIVTLSYHFILGVLLGEILQSSWTIFRLTFQRPKPSWDGSALTKVTRVPTFIFSLVWILFNLYTVYLLIKYTIL”, the protein production entry is “failed”.

“MIYMDVYMNSYFPHNLDTENSIIDLSKWQELADLIVDIFGADCGAIIKFTGHSFTTMLSSRNEASFLHQGTEWSSDSKSFCRTIIKTGKPLYIANAVEDEYWFDAPPVVNGPVRSYCGVPIFSPDGSIYGTICAIDTKSTRYEDALTKLLLHLSKLITSDLKIAEKAEQHRLMALTDQTTGLLNRRGLNVLSEQKFKDAKRNQDHIGVLYLDIDNLKIINDNFGHLAGDKCIKLLATILKKMVRQSDLIARIGGDEFTVLALINSENTNELDHLSMRIREVYQNEIKDNAELNMSNISIGQHLVSYDSNASLKEMLAKADSLMYQEKIDKS”: the protein production result is “failed”. In the case of “MIYQVDGKTIVLVLEQGEDIVEAVTDIAREQNGKFGTVSGIGACSSAELNFYNLETQTYEKKLIDEPLELIGLMGNISHIDEQPFAHLHATFGTNQYETLSGHLTKAVVSATAEIIITMTNLDINRKHNETIGLNLLDLLEHHHHHH” it was “not failed”; in that of “MIYRILIVISIFMISFSGFGQTDYFKLGKEYYNNGEYEKAAATYSEVIKKEENLPKVYETYLSTLYKLKNYTEAEKIIKKMVKVGSPENYTYRIDYALFYKQQNLTDKAEKEFSAFVSDIQKNSTAVDISGAYLQKLGEYTWAKQLYLQARKNFDRYAYCFELSSIYNRLGQTENMFDELLNYLSVNPASLEEVQNTFQNELDTDEKFALFETKVYDRINKDPNDIVYNQLLLWLNLQRKNFTKAFIQAKAIDKRNRQTGTTVLEVGNIALENKDYDAAGACFQYVSDNFKESFNYSIARRLLIQTREEQIKNTFPVDKQKIVGLISDYNQLLKENGRTAYTLESLRNMALLNAFYLDKRDTAVVILKSLIENPYTDNRLRGKAKIDLGDIYLLTGEPWESTLLYSQVEKDFKEDQLGHEAKLRNAELYYYKGEFVLAQEQLDVLKLATTREISNDAIQLSVFITENSGLDSTTDALKDYSAIQLLLFQRKYDEALQAANALLKQYPHHELTDDVYWLQATILRQTGKPTEALEMLKKISTGYADDLLGDDALFTSAQIFDYDLKNTEKAMQLYQDFLIQYTNSVYVTEARKRFRILRGDKI”, “failed”; in that of “MIYYLIGVALFIFMLEQLVPGWKLPKVSTWVARVIFLNIVQVSIALLAGITWNKWMMGHSLLHTSDALPPLLAGFAAYFVNTFVTYWWHRARHANDTLWRLFHQLHHAPQRIEVFTSFYKHPTEMVFNSLLGSFVAYVVMGISIEAGAYYIMFAALGEMFYHSNLRTPHVLGYLFQRPEMHRIHHQRDRHECNYSDFPIWDMLFGTYENPRRIDEPQGFAGDKEQQFVDMLLFRDVHSLPGKTQPAPVLVKPDVR”, “failed”. In the case of “MKAAEKYAKDVVAGKILVCKWIMLLAQRHLDDLAVSKRKDFPYKFDPAKAEKVAKFLQLLPHTKGKWGGKKQLIKLEPWQLFSVCVPFGWVRKKDGTRRYRTILVFVPRKNGKSIIGGGVGLYMFVADGEFGAEVYSGATTEKQAWEVFRPAKLMVERTDDLREHYGVDVNASNMVVLADGSRFEPVIGKPGDGSSPSCSVVDEYHEHQDSTLYDTMETGMGAREQPIMLVITTAGSSIGGPCHQLIRDSERMLEGVIDRPDLWPALYTIDQGDDWTSEIALRKANPNFGISVAEDFLLARQRDAMQSATKQATFRTKHLNEWVGAKNAWLNMLRWKEAPVRKSLAELEGRSCYGSLDLASKIDIAANLLIFPPHGDDPFWHIHARYYLPEARVLEELDSNTARYREFDALGLLTLTDGEVTDFEVIKEDMREFAGRFDIRAYAYDPWQATQLAQEMDAEGLPMVELRQTVQNLSEPMKEVEALVLQRKLAHGDCPVLTWMASNVVAKLDVKDNIYPNKERPENKIDGMVSLITGCAVAIKLGIDDSGHFDDFLASPIVVG” it was “failed”. In the case of “MKAAPARSAAYDNPYAKRLFLIIDSLPQMQRALAMTLSSFGANTVEYASKASDALAKMAKYEFDVVLCDYDLGNGYDGLYLFEEIRERNLLKQSCVFMIVTGERRAQRVISAAELAPDDYLLKPFTGEVLRDRLERAMRKREAFRLVDENILRHDYLSAIETCGRKIEENGEFALDFMRLKGSLALKINDFDTARDAYMQVLRLRPATWAKMGLAKSLAGLKSHDEARLLFEAVLADNNQVMEAYDWLARLYRGNHDLGRAQHTLQTAADMSPVVFRRQQQLAQVAVLNHDLAAAEAACQQTLDIAKYTWHRSPTHYAALLRVQLARGDNGNAVRTLANLKHDYRYNEEGEWLAGVMDSQLQAKNGNADKARELLEAAGERFKQLAPKLDQESQLEYARACYQQGRDGQGNAVMEYLVRNHHDDEDMLEHFGDMFEEIGLSQAGRQLIAQNVKSVLELNNQAVREAQSGQFDAAIERFVKALDEMPQNVQIMLNLINAVLAYVSQNGWHESHMRRAYELLGKVRDTAPTNNKFQKILQSWRLLVDKMDKPQWAL” it was “failed”. As for “MKAERPDTRKLKALKRGHIAEYRAALCLMLKGYRIVAMRYRTRLGEIDIIARRGDLVACVEVKARVSLEDAVFAVTDTAQRRIRAASDLWLSRQGDFHRLSVRYDIVAVTPWRWPRHLPDAF”, the protein production entry is “failed”.

As for “MKAIIMAGGQGKRLRPLTCNLPKPMMPIMQKPVLQYIIELLKKHGINEIGITLHYLPDEVMDYFGDGKELGVNIHYFIEQSPLGTAGSVRNAESFLDETFVVISGDALTDVNLTNILQYHKEKNAMVTIVLKKVTIPLEYGVAITDTEGRISNFIEKPGWGEIFSDKANTGIYVMEPGIFEFYNKDKKFDFSEELFPELLKSGKEIFGYVVNDYWRDIGNIEQFMKCNFDILNGYVDVDVDIDASQHQKGVWIGKNTIVSDNVKVIPPVYIGDNSEIRYGAEIGPFAVIGRNNIISEMATIKRSIIFENCYIGSGAELRGSVVSNNVQVGGGVSTFEESAIGTGSLVGEKSVVKAGVKIWPDKVIGSKTIIKTNVVWGENRCKVLFGKEGISGEINVELTPEFVSKLASAFASNLRMNSKVVVCSDYNLAAEMLKYSFVSGLISMGIEVYSAKEMTIPMLRFSTAYFKADAAVYIYCKGSNKEKVNILFIDKDGIMISRSMEKKIANSFLREDFRRTRANNFKRLRDFGECMGYYEDYIKENLCIQEIRNSGLKVAVSMENKLIKNEVKSIFSDLKIQYSIYDNYADLEGLKKEVIEKKMDFGVCISENCDKAIIIDENANIISTQMYESIKALILISVYKFKTIVAPVNSSKALKYIAKRYNCKYVKSKISERYILNEYILNEKDKNIKEVLFSYLSSTDALNIVINIINILARGKIKLSELMERIPNYILREKEIACSWDNKGKIMRSLIEENISKSIELIEGIKVNYEDAWVLIIPDSDEPICKIYAESNDEEKTDKIINEFESEIELFMKN”, the protein production result was “failed”.

With “MKAKAILLASVLLVGCQTSQNTGNVQQHAQSLSAAGQGEAGKFTSQARWMDDGTSIAPDQDLWAFIGDELKMGIPENSRIREQKQKYLRNKSYLHDVTLRAEPYMYWIAGQVKKRNMPMELVLLPIVESAFDPHATSGANAAGIWQIIPSTGRNYGLKQTRNYDARRDVVASTTAALDMMQRLNKMFDGDWLLTVAAYNSGEGRVMRAIKANKARGKPTDFWSLSLPRETKLYVPKMLALSEILKNSKRYGVRLPTTDESRALARVRLNSPVEMAQVADMAGMSISKLKTFNAGVKGSTLGVSGPQYVMVPKKHAEQLRESLASGEIDAVQSQLIADNTPLNSRSYKVRSGDTLSGIASRLGVSTKDLQQWNNLRGSRLKIGQSLTVGAGSSAQRLANNSDSITYRVRKGDSLSSIARRHGVNIKDVMRWNHDTDNLQPGDQLTLFVKDNSTPDSLEHHHHHH”, the protein production entry was “not failed”. For “MKAKLENRLERQLQQLSYARGLILDEIGYLPMTSEEASLFFRLLNRRYEKASIILTSNKGFADWGEMFGDNVLATAILDRLLHHSTTLNIKGESYQLKEKRKVGALTKSATPISEDEMAESGQQK”, the protein production entry was “failed”.
